Changes are numbered by the printed parent chain. One block for each binder: values may come before it. No end group written: not given here.
What was measured:
[1] = molecular target: T1, human Origin Recognition Complex subunit 1 BAH domain, R105Q mutant (human, UniProt Q13415 45-171, R105Q); assay: ITC
T1 sequence (looked up): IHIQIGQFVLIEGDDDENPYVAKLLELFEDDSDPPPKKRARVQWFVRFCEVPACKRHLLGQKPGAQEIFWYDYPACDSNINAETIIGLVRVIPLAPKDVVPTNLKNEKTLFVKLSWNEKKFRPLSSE

[2] = molecular target: T2, human Origin Recognition Complex subunit 1 BAH domain, wild type (human, UniProt Q13415 45-171); assay: ITC
T2 sequence (looked up): T1 sequence (looked up) with Q61R

[3] = molecular target: T3, hORC1 BAH domain, wild type (human, UniProt Q13415 45-171); assay: EMSA
T3 sequence: T1 sequence (looked up) with Q61R

Kd [1]: 8.33 µM | Kd [2]: 8.85 µM
B1: histone H4(14–25)Kc20me2 peptide (peptide)
peptide: GAKRHRCVLRDNY
modifications: not fully specified (residue 7)

B2: 14-bp DNA duplex (dsDNA)
DNA 1: GGAGGCCTCCTGCT
DNA 2: AGCAGGAGGCCTCC
binding result [3]: binds

Source: paper PMC4654454 (ACS chemical biology, 2015)
